The test has as its target T1, human P-cadherin (CDH3) expressed on cancer cell lines HCT116, H1975 and CAL27 (human, UniProt P22223 108-829).
T1 construct: whole, on cells
As to the kind of experiment: flow cytometry on H1975, HCT116 and CAL27 cells, MFI fold over background. From the text: Human P-cadherin (CDH3)-expressing cancer cell lines, HCT116, H1975 and CAL27, were used to assess tumor antigen binding of multi-specific binding proteins having a P-cadherin (CDH3) binding site comprising a heavy chain variable domain sequence identical to SEQ ID NO:196 and a light chain variable domain sequence identical to SEQ ID NO:200 (D153 DB), or a P-cadherin (CDH3) binding site comprising a heavy chain variable domain sequence identical to SEQ ID NO:188 and a light chain variable domain sequence identical to SEQ ID NO:192 (TSP7 DB). Multi-specific binding proteins or corresponding monoclonal antibodies (mAb) having the same P-cadherin (CDH3) binding site were diluted and incubated with the cells. Binding was detected using a fluorophore conjugated anti-human IgG secondary antibody. Cells were analyzed by flow cytometry and binding was expressed as mean fluorescence intensity (MFI) normalized to human recombinant IgG1 stained controls to obtain fold over background (FOB) values.

T1 sequence (P22223 108-829): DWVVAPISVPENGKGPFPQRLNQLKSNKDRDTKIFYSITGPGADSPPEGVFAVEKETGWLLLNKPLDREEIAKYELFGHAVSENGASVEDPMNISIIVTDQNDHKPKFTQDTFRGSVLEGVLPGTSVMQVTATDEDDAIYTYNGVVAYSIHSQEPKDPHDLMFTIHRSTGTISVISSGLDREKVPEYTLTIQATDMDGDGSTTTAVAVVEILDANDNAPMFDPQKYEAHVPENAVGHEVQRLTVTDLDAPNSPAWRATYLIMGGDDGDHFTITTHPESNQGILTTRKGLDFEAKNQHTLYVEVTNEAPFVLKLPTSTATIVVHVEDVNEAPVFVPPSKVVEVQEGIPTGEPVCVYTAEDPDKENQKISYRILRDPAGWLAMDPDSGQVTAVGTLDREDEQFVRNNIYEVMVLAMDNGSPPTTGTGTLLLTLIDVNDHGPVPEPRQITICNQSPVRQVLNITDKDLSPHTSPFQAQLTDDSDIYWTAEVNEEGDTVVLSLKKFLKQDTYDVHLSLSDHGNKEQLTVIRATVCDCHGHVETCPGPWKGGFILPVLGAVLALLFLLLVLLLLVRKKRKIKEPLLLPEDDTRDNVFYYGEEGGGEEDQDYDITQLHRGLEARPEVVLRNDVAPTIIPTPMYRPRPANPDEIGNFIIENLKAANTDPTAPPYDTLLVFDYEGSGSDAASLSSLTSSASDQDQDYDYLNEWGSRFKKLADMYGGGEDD

B1: anti-P-cadherin mAb (TSP7 wt mAb) (antibody, V domains shown)
VH: QVQLQESGPELVKPGASVKMSCKASGYSFTAYNMHWVKQSHGKSLEWIGFIDPYSGIITYNQTFKGKATLTVDKSSSTAYMQLNSLTSEDSAVYYCARRGYYDGGFDYWGQGTTLTVSS
VL: DIQMTQTTSSLSASLGDRVTISCRASQDITNYLNWYQQKPDGTVKLLIYYTSRLHSGVPSRFSGSGSGTDYSLTISNLEQEDIATYFCQQDSKHPRTFGGGTKLEIK
notes: it was detected with an anti-human IgG secondary antibody; also called TSP7 mAb
As for B1, the binding result is “binds”.

B2: anti-P-cadherin mAb (D153 wt mAb) (antibody, V domains shown)
VH: EVQLVQSGAEVKKPGASVKVSCKASGYTFTSYGISWVRQAPGQGLEWMGWISAYNGNTNYAQKLQGRVTMTTDTSTSTAYMELRSLRSDDTAVYYCATIDTANAFGIWGQGTMVTVSS
VL: QSVLTQPPSVSAAPGQKVTISCSGSSSNIGNNYVSWYQQLPGTAPKLLIYDNNKRPSGIPDRFSGSKSGTSATLGITGLQTGDEADYYCGTWDSSLSGVVFGGGTKLTVL
notes: it was detected with an anti-human IgG secondary antibody; also called D153 mAb
Take B2: the binding result is reported as “binds”.

The values above are taken from US20210238290A1 (DRAGONFLY THERAPEUTICS, published 2021).
